The source of these data is publication doi:10.1101/266643 (bioRxiv, 2018).

The assay has as its target TrkA receptor (tropomyosin receptor kinase A) on NIH3T3-TrkA cells (UniProt P04629 33-796).

Sequence of TrkA receptor (tropomyosin receptor kinase A) on NIH3T3-TrkA cells (P04629 33-796): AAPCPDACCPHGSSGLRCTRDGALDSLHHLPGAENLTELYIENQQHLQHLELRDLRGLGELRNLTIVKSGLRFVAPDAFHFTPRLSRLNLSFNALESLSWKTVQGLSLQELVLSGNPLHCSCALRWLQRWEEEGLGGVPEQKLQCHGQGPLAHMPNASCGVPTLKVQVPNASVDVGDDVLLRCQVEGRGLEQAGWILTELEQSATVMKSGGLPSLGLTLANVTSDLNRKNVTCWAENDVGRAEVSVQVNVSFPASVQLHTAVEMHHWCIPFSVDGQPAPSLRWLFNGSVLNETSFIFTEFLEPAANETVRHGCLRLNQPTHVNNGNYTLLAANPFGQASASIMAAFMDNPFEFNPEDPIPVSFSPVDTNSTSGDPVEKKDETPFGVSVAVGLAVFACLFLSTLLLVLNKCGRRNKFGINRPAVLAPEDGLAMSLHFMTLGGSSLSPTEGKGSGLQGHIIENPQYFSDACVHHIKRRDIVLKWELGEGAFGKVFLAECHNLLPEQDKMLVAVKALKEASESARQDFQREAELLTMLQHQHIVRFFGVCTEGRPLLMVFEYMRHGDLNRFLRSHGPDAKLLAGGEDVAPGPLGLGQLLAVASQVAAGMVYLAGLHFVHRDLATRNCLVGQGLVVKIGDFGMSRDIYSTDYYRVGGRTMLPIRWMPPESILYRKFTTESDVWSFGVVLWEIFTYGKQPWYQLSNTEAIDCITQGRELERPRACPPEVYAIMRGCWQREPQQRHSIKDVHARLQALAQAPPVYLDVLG

B1: NGF^R100W, mature form of the HSAN V mutant nerve growth factor, monobiotinylated, with AviTag (ligand)
chain: SSTHPVFHMGEFSVCDSVSVWVGDKTTATDIKGKEVTVLAEVNINNSVFRQYFFETKCRASNPVESGCRGIDSKHWNSYCTTTHTFVKALTTDEKQAAWWFIRIDTACVCVLSRKATRRGGGGLNDIFEAQKIEWHE
modifications: biotin on the AviTag (BirA co-expressed); conjugated to streptavidin-QD655 for the assays on cells
For orientation: Kd means the concentration at which binding is half-saturated. Take B1: the Kd is 2.79 nM.

B2: wildtype nerve growth factor (wtNGF), monobiotinylated, with AviTag (ligand, mouse, UniProt P01139 122-241, looked up)
chain: SSTHPVFHMGEFSVCDSVSVWVGDKTTATDIKGKEVTVLAEVNINNSVFRQYFFETKCRASNPVESGCRGIDSKHWNSYCTTTHTFVKALTTDEKQAAWRFIRIDTACVCVLSRKATRRG
modifications: biotin on the AviTag (BirA co-expressed); conjugated to streptavidin-QD655 for the assays on cells
For the molecule B2, the Kd turned out to be 2.27 nM.
